Assay results taken from publication PMC11750923, “High-affinity ssDNA aptamer and chemiluminescent aptasensor for TIMP-1 detection in human serum”.

Target: TIMP-1 (tissue inhibitor of metalloproteinases 1) (human, UniProt P01033 24-207)
Assay: BLI; DPBS + 0.025% Tween 20; kon 1.30e6 M-1 s-1, koff 5.36e-4 s-1; 1:1 with mass transport; DPBS (138 mM NaCl, 2.67 mM KCl, 8.1 mM Na2HPO4, 1.47 mM KH2PO4, 1 mM CaCl2, 0.5 mM MgCl2); BLI with 0.025% Tween 20; pH and temperature not stated
Conditions: protein: commercial; tags: His; label: biotin (BLI); hairpin

Sequence of TIMP-1 (tissue inhibitor of metalloproteinases 1) (P01033 24-207): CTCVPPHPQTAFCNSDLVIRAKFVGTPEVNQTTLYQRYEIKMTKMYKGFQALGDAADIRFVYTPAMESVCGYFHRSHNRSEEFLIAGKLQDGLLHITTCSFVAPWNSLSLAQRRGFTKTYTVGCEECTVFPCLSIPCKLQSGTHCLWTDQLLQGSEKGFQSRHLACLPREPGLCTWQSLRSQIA

B1: Apt-4 (ssDNA)
DNA: CACGCATAGCGCCCCAACCCCAGTCGATGAAATTGCGTCGCGGGTGCCTATGCGTG
Work on B1 yielded a Kd of 0.41 nM.
